We go through ten proteins from paper PMC3791462, “Role of the C-terminal domain in the structure and function of tetrameric sodium channels” (Nature Communications, 2013).

B1: NavMs-pore+CTD (wild-type pore with full-length C-terminal domain of the NavMs sodium channel from Magnetococcus marinus MC-1) (domain or fragment, UniProt A0L5S6 130-274, looked up)
chain: GVGSVAALLTVVFYIAAVMATNLYGATFPEWFGDLSKSLYTLFQVMTLESWSMGIVRPVMNVHPNAWVFFIPFIMLTTFTVLNLFIGIIVDAMAITKEQEEEAKTGHHQEPISQTLLHLGDRLDRIEKQLAQNNELLQRQQPQKK
notes: Plasmid pET15b; also called unlabelled wild-type construct; wild-type pore+CTD protein; source: E. coli C41(DE3), purified (HisTrap HP, thrombin, second HisTrap HP, size exclusion) in HEGA-10
B2: NavMs-pore+CTD A260C, PROXYL spin-labelled (domain or fragment, Magnetococcus marinus MC-1, UniProt A0L5S6 130-274, looked up)
chain: GVGSVAALLTVVFYIAAVMATNLYGATFPEWFGDLSKSLYTLFQVMTLESWSMGIVRPVMNVHPNAWVFFIPFIMLTTFTVLNLFIGIIVDAMAITKEQEEEAKTGHHQEPISQTLLHLGDRLDRIEKQLCQNNELLQRQQPQKK
modifications: 3-(2-iodoacetamido)-PROXYL nitroxide spin label on cysteine 260
notes: source: E. coli C41(DE3), purified (HisTrap HP, thrombin, size exclusion), spin-labelled
B3: NavMs-pore+CTD A232C, PROXYL spin-labelled (domain or fragment, Magnetococcus marinus MC-1, UniProt A0L5S6 130-274, looked up)
chain: GVGSVAALLTVVFYIAAVMATNLYGATFPEWFGDLSKSLYTLFQVMTLESWSMGIVRPVMNVHPNAWVFFIPFIMLTTFTVLNLFIGIIVDAMAITKEQEEECKTGHHQEPISQTLLHLGDRLDRIEKQLAQNNELLQRQQPQKK
modifications: 3-(2-iodoacetamido)-PROXYL nitroxide spin label on cysteine 232
notes: as for B2
B4: NavMs-pore+CTD A221C, PROXYL spin-labelled (domain or fragment, Magnetococcus marinus MC-1, UniProt A0L5S6 130-274, looked up)
chain: GVGSVAALLTVVFYIAAVMATNLYGATFPEWFGDLSKSLYTLFQVMTLESWSMGIVRPVMNVHPNAWVFFIPFIMLTTFTVLNLFIGIIVDCMAITKEQEEEAKTGHHQEPISQTLLHLGDRLDRIEKQLAQNNELLQRQQPQKK
modifications: 3-(2-iodoacetamido)-PROXYL nitroxide spin label on cysteine 221
notes: as for B2
B5: NavMs-pore+CTD A221C/D250C double mutant, PROXYL spin-labelled (domain or fragment, Magnetococcus marinus MC-1, UniProt A0L5S6 130-274, looked up)
chain: GVGSVAALLTVVFYIAAVMATNLYGATFPEWFGDLSKSLYTLFQVMTLESWSMGIVRPVMNVHPNAWVFFIPFIMLTTFTVLNLFIGIIVDCMAITKEQEEEAKTGHHQEPISQTLLHLGCRLDRIEKQLAQNNELLQRQQPQKK
modifications: 3-(2-iodoacetamido)-PROXYL nitroxide spin labels on cysteines 221 and 250
notes: as for B2
B6: NavMs-pore+CTD A223C, PROXYL spin-labelled (domain or fragment, Magnetococcus marinus MC-1, UniProt A0L5S6 130-274, looked up)
chain: GVGSVAALLTVVFYIAAVMATNLYGATFPEWFGDLSKSLYTLFQVMTLESWSMGIVRPVMNVHPNAWVFFIPFIMLTTFTVLNLFIGIIVDAMCITKEQEEEAKTGHHQEPISQTLLHLGDRLDRIEKQLAQNNELLQRQQPQKK
modifications: 3-(2-iodoacetamido)-PROXYL nitroxide spin label on cysteine 223
notes: as for B2
B7: NavMs-pore+CTD R268C, PROXYL spin-labelled (domain or fragment, Magnetococcus marinus MC-1, UniProt A0L5S6 130-274, looked up)
chain: GVGSVAALLTVVFYIAAVMATNLYGATFPEWFGDLSKSLYTLFQVMTLESWSMGIVRPVMNVHPNAWVFFIPFIMLTTFTVLNLFIGIIVDAMAITKEQEEEAKTGHHQEPISQTLLHLGDRLDRIEKQLAQNNELLQCQQPQKK
modifications: 3-(2-iodoacetamido)-PROXYL nitroxide spin label on cysteine 268
notes: as for B2
B8: NavMs-pore+CTD D250C, PROXYL spin-labelled (domain or fragment, Magnetococcus marinus MC-1, UniProt A0L5S6 130-274, looked up)
chain: GVGSVAALLTVVFYIAAVMATNLYGATFPEWFGDLSKSLYTLFQVMTLESWSMGIVRPVMNVHPNAWVFFIPFIMLTTFTVLNLFIGIIVDAMAITKEQEEEAKTGHHQEPISQTLLHLGCRLDRIEKQLAQNNELLQRQQPQKK
modifications: 3-(2-iodoacetamido)-PROXYL nitroxide spin label on cysteine 250
notes: as for B2
B9: NavMs-pore+CTD I241C, PROXYL spin-labelled (domain or fragment, Magnetococcus marinus MC-1, UniProt A0L5S6 130-274, looked up)
chain: GVGSVAALLTVVFYIAAVMATNLYGATFPEWFGDLSKSLYTLFQVMTLESWSMGIVRPVMNVHPNAWVFFIPFIMLTTFTVLNLFIGIIVDAMAITKEQEEEAKTGHHQEPCSQTLLHLGDRLDRIEKQLAQNNELLQRQQPQKK
modifications: 3-(2-iodoacetamido)-PROXYL nitroxide spin label on cysteine 241
notes: as for B2
B10: NavMs-pore+CTD K273C, PROXYL spin-labelled (domain or fragment, Magnetococcus marinus MC-1, UniProt A0L5S6 130-274, looked up)
chain: GVGSVAALLTVVFYIAAVMATNLYGATFPEWFGDLSKSLYTLFQVMTLESWSMGIVRPVMNVHPNAWVFFIPFIMLTTFTVLNLFIGIIVDAMAITKEQEEEAKTGHHQEPISQTLLHLGDRLDRIEKQLAQNNELLQRQQPQCK
modifications: 3-(2-iodoacetamido)-PROXYL nitroxide spin label on cysteine 273
notes: as for B2

This data set deals with the molecule itself. The experiment in a line: SEC; Superdex 200 10/300 GL, buffer A (10 mM Tris-HCl pH 7.5, 100 mM NaCl, 0.52% HEGA-10); detergent-solubilised protein. For orientation: In gel filtration, larger molecules generally elute earlier.
Regarding B1, the “stoichiometry N” value came out at 4. On to B2, for which the “stoichiometry N” value was 4.

Take B3: the “stoichiometry N” value is 4.

For B4, the “stoichiometry N” value turned out to be 4. Under B5 stands 4.

For the protein B6, the “stoichiometry N” value was 4. Regarding B7, the “stoichiometry N” value worked out at 4. As to B8, the “stoichiometry N” value is 4. Under B9 stands 4; under B10, 4.

A word on the stoichiometry N: it is the number of molecules, sites or subunits per partner or assembly.
